# Source: PMC4290037, “Purification and Characterization of Glucose-6-Phosphate Dehydrogenase from Camel Liver” (Enzyme Research, 2014)
# B1: Glucose-6-phosphate dehydrogenase (camel liver G6PD) (Camelus dromedarius) (protein)
# chain: AEQVALSRNQVCGILREELYQGDAFHQSDTHIFIIMGASGDLAKKKIYPTIWWLFRDGLLPEDTYIVGYARSRLTVADIRKQSEPFFKATPEEKPKLEEFFARNSYVAGQYDDAASYERLNSHMNALHQGSQANRLFYLALPPTVYEAVTKNIRETCMSQTGWNRIIVEKPFGRDLQSSNQLSNHISSLFREDQIYRIDHYLGKEMVQNLMVLRFANRIFGPIWNRDNIACVILTFKEPFGTEGRGGYFDEFGIIRDVMQNHLLQMLCLVAMEKPASTDSDDVRDEKVKVLKCISEVQANNVVLGQYVGNPNGEGEATKGYLDDPTVPRGSITATFAAVVLYVENERWDGVPFILRCGKALNERKAEVRLQFRDVAGDIFQQQCKRNEVVIRVQPNEAVYTKMMTKKPGMFFNPEESELDLTYGNRYKNVKLPDAYERLILDVFCGSQMHFVRSDELREAWRIFTPLLHKIEREKLQPIPYVYGSRGPAEADELMKRVGFQYEGTYKWVNPHKL
# Substrate: NC(=O)c1ccc[n+]([C@@H]2O[C@H](COP(=O)(O)OP(=O)(O)OC[C@H]3O[C@@H](n4cnc5c(N)ncnc54)[C@H](OP(=O)(O)O)[C@@H]3O)[C@@H](O)[C@H]2O)c1
# Test: purified protein
protein,measurement,value
B1,Km,81 µM
